Earlier results on two substances are cited in PMC6389717.

The target of one data set is Asp38 (UniProt position 38, DATVEDPVGSE). The data set is described as follows: kinetics (per the article's general statement only; no method given for this value). Particulars: presumed enzyme-substrate complex (general statement of the article); not given.
A further data set has as its target Lys39 (UniProt position 39, IMAVVKANAYG). The data set is described as follows: kinetics. The note with it: enzyme-substrate complex (alanine-bound active site, external aldimine).

On to “Ketosteroid isomerase (3-oxo-Delta5-steroid isomerase) (not stated in the article (inferred: Comamonas testosteroni, formerly Pseudomonas testosteroni))”, for which the pKa with Asp38 is 4.6.
Consider “Alanine racemase (not stated in the article (inferred: Geobacillus stearothermophilus, formerly Bacillus stearothermophilus))”, for which, in the data set with Lys39, the pKa was 7.4.

What is called pKa is the pH at which an ionisable group is half protonated.
